Data reported in patent US20150164995A1 (Sanofi, published 2015).
Like-named read-outs stand apart in the source and are kept apart here. Square brackets hold non-standard residues; d marks the D form. Ends that are not written are not given here. Nle = CCCC[C@H](N)C(=O)O; Aib = CC(C)(N)C(=O)O

T1: human GIP receptor (human, UniProt P48546 22-466)
T1 sequence (looked up): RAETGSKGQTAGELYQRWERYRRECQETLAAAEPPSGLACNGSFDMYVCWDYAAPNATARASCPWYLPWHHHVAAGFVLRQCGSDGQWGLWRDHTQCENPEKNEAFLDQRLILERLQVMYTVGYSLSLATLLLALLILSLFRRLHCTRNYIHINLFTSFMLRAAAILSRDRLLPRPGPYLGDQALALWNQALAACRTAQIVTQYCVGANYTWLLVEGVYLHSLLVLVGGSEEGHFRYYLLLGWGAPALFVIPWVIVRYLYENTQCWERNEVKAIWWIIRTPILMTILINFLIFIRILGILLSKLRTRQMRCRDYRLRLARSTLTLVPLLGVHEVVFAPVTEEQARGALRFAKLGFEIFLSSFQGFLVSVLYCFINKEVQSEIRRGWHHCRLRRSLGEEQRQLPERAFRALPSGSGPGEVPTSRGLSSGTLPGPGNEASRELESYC


How the values were obtained:
Experiment in all cases: cell-based or functional assay
[1] = target: human GLP-1 receptor (human) (UniProt P43220)
Chain of human GLP-1 receptor (human) (P43220 24-463): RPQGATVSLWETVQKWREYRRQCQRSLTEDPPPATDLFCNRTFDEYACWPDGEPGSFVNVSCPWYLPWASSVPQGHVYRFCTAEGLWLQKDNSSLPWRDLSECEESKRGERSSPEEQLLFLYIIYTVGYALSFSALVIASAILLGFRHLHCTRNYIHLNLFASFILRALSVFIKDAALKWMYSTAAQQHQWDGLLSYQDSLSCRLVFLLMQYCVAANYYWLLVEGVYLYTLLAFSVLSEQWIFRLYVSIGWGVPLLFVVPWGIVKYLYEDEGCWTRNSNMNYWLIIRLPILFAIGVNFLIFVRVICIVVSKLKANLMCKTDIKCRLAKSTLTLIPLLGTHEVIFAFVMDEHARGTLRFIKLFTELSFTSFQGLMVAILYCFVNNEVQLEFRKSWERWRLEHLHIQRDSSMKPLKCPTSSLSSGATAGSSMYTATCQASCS

[2] = target: human glucagon receptor (human) (UniProt P47871)
Chain of human glucagon receptor (human) (P47871 26-477): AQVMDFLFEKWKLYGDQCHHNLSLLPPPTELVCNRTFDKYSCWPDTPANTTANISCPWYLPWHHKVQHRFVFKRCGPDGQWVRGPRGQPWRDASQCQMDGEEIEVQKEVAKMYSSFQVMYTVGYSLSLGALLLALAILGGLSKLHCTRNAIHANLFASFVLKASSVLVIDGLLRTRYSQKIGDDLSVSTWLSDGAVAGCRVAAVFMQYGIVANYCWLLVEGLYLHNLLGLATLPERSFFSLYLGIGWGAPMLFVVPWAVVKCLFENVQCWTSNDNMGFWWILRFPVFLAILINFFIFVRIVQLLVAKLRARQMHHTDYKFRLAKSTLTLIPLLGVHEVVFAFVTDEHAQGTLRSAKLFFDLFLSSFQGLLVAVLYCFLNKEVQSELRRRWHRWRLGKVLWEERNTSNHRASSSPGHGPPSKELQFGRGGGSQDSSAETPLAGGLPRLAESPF

[3] = target: T1, human GIP receptor
[4] = target: human glucagon receptor (human, UniProt P47871 26-477)
Chain of human glucagon receptor (P47871 26-477): as above

[5] = target: T2, human GLP-1 receptor (human, UniProt P43220 24-463)
[6] = target: T1, human GIP receptor; remark: listed apart in the source
[7] = target: T2, human GLP-1 receptor; remark: listed apart in the source
Target sequence in this assay (P43220 24-463): as the sequence (P43220 24-463) above

Molecule | EC50 hGLP-1 R [pM] (cAMP formation, HTRF, HEK-293 cells) [1] | EC50 hGlucagon R [pM] (cAMP formation, HTRF, HEK-293 cells) [2] | EC50 hGlP R [pM] (cAMP formation, HTRF, HEK-293 cells) [3] | EC50 hGLUC R [pM] (cAMP formation, HTRF, HEK-293 cells) [4] | EC50 hGLP-1 R [pM] (cAMP formation, HTRF, HEK-293 cells) [5] | EC50 hGlP R [pM] (cAMP formation, HTRF, HEK-293 cells) [6] | EC50 hGLP-1 R [pM] (cAMP formation, HTRF, HEK-293 cells) [7]
exendin-4 (peptide) | 0.4 pM | > 1e+07 pM |  |  |  |  | 
Y[Aib]EGTFTSDLSIQLEKRAA[Aib]EFIEWLKAGGPSSGAPPPS-NH2 (N-terminus assumed; SMILES CC[C@H](C)[C@H](NC(=O)[C@H](CO)NC(=O)[C@H](CC(C)C)NC(=O)[C@H](CC(=O)O)NC(=O)[C@H](CO)NC(=O)[C@@H](NC(=O)[C@H](Cc1ccccc1)NC(=O)[C@@H](NC(=O)CNC(=O)[C@H](CCC(=O)O)NC(=O)C(C)(C)NC(=O)[C@@H](N)Cc1ccc(O)cc1)[C@@H](C)O)[C@@H](C)O)C(=O)N[C@@H](CCC(N)=O)C(=O)N[C@@H](CC(C)C)C(=O)N[C@@H](CCC(=O)O)C(=O)N[C@@H](CCCCN)C(=O)N[C@@H](CCCNC(=N)N)C(=O)N[C@@H](C)C(=O)N[C@@H](C)C(=O)NC(C)(C)C(=O)N[C@@H](CCC(=O)O)C(=O)N[C@@H](Cc1ccccc1)C(=O)N[C@H](C(=O)N[C@@H](CCC(=O)O)C(=O)N[C@@H](Cc1c[nH]c2ccccc12)C(=O)N[C@@H](CC(C)C)C(=O)N[C@@H](CCCCN)C(=O)N[C@@H](C)C(=O)NCC(=O)NCC(=O)N1CCC[C@H]1C(=O)N[C@@H](CO)C(=O)N[C@@H](CO)C(=O)NCC(=O)N[C@@H](C)C(=O)N1CCC[C@H]1C(=O)N1CCC[C@H]1C(=O)N1CCC[C@H]1C(=O)N[C@@H](CO)C(N)=O)[C@@H](C)CC) [SEQ ID NO: 9] |  |  | 7.9 pM | 155000 pM | 1.2 pM |  | 
Y[Aib]EGTFTSDLSIQLDKRAA[Aib]EFIEWLKAGGPSSGAPPPS-NH2 (N-terminus assumed; SMILES CC[C@H](C)[C@H](NC(=O)[C@H](CO)NC(=O)[C@H](CC(C)C)NC(=O)[C@H](CC(=O)O)NC(=O)[C@H](CO)NC(=O)[C@@H](NC(=O)[C@H](Cc1ccccc1)NC(=O)[C@@H](NC(=O)CNC(=O)[C@H](CCC(=O)O)NC(=O)C(C)(C)NC(=O)[C@@H](N)Cc1ccc(O)cc1)[C@@H](C)O)[C@@H](C)O)C(=O)N[C@@H](CCC(N)=O)C(=O)N[C@@H](CC(C)C)C(=O)N[C@@H](CC(=O)O)C(=O)N[C@@H](CCCCN)C(=O)N[C@@H](CCCNC(=N)N)C(=O)N[C@@H](C)C(=O)N[C@@H](C)C(=O)NC(C)(C)C(=O)N[C@@H](CCC(=O)O)C(=O)N[C@@H](Cc1ccccc1)C(=O)N[C@H](C(=O)N[C@@H](CCC(=O)O)C(=O)N[C@@H](Cc1c[nH]c2ccccc12)C(=O)N[C@@H](CC(C)C)C(=O)N[C@@H](CCCCN)C(=O)N[C@@H](C)C(=O)NCC(=O)NCC(=O)N1CCC[C@H]1C(=O)N[C@@H](CO)C(=O)N[C@@H](CO)C(=O)NCC(=O)N[C@@H](C)C(=O)N1CCC[C@H]1C(=O)N1CCC[C@H]1C(=O)N1CCC[C@H]1C(=O)N[C@@H](CO)C(N)=O)[C@@H](C)CC) [SEQ ID NO: 12] |  |  | 17.9 pM | 17900 pM | 2.6 pM |  | 
Y[Aib]EGTFTSDLSIQLEKRAA[Aib]EFIEWLKAGGPSSGAPPPSK-NH2 (N-terminus assumed; SMILES CC[C@H](C)[C@H](NC(=O)[C@H](CO)NC(=O)[C@H](CC(C)C)NC(=O)[C@H](CC(=O)O)NC(=O)[C@H](CO)NC(=O)[C@@H](NC(=O)[C@H](Cc1ccccc1)NC(=O)[C@@H](NC(=O)CNC(=O)[C@H](CCC(=O)O)NC(=O)C(C)(C)NC(=O)[C@@H](N)Cc1ccc(O)cc1)[C@@H](C)O)[C@@H](C)O)C(=O)N[C@@H](CCC(N)=O)C(=O)N[C@@H](CC(C)C)C(=O)N[C@@H](CCC(=O)O)C(=O)N[C@@H](CCCCN)C(=O)N[C@@H](CCCNC(=N)N)C(=O)N[C@@H](C)C(=O)N[C@@H](C)C(=O)NC(C)(C)C(=O)N[C@@H](CCC(=O)O)C(=O)N[C@@H](Cc1ccccc1)C(=O)N[C@H](C(=O)N[C@@H](CCC(=O)O)C(=O)N[C@@H](Cc1c[nH]c2ccccc12)C(=O)N[C@@H](CC(C)C)C(=O)N[C@@H](CCCCN)C(=O)N[C@@H](C)C(=O)NCC(=O)NCC(=O)N1CCC[C@H]1C(=O)N[C@@H](CO)C(=O)N[C@@H](CO)C(=O)NCC(=O)N[C@@H](C)C(=O)N1CCC[C@H]1C(=O)N1CCC[C@H]1C(=O)N1CCC[C@H]1C(=O)N[C@@H](CO)C(=O)N[C@@H](CCCCN)C(N)=O)[C@@H](C)CC) [SEQ ID NO: 11] |  |  | 14.1 pM | 129000 pM | 1.6 pM |  | 
YAEGTFTSDVSIYLEGQAAKEFIAWLVKGR (ends and bridges not checked) [Tyr(1)Ile(12)-GLP1] |  |  |  |  |  | 3660 pM | 5 pM
Y[Aib]EGTFTSDLSIQMEKRAA[Aib]EFIEWLKAGGPSSGAPPPS-NH2 [SEQ ID NO: 8] |  |  | 14.4 pM | > 1e+06 pM | 1.5 pM |  | 
Y[Aib]EGTFTSDLSIQ[Nle]EKRAA[Aib]EFIEWLKAGGPSSGAPPPS-NH2 (N-terminus assumed; SMILES CCCC[C@H](NC(=O)[C@H](CCC(N)=O)NC(=O)[C@@H](NC(=O)[C@H](CO)NC(=O)[C@H](CC(C)C)NC(=O)[C@H](CC(=O)O)NC(=O)[C@H](CO)NC(=O)[C@@H](NC(=O)[C@H](Cc1ccccc1)NC(=O)[C@@H](NC(=O)CNC(=O)[C@H](CCC(=O)O)NC(=O)C(C)(C)NC(=O)[C@@H](N)Cc1ccc(O)cc1)[C@@H](C)O)[C@@H](C)O)[C@@H](C)CC)C(=O)N[C@@H](CCC(=O)O)C(=O)N[C@@H](CCCCN)C(=O)N[C@@H](CCCNC(=N)N)C(=O)N[C@@H](C)C(=O)N[C@@H](C)C(=O)NC(C)(C)C(=O)N[C@@H](CCC(=O)O)C(=O)N[C@@H](Cc1ccccc1)C(=O)N[C@H](C(=O)N[C@@H](CCC(=O)O)C(=O)N[C@@H](Cc1c[nH]c2ccccc12)C(=O)N[C@@H](CC(C)C)C(=O)N[C@@H](CCCCN)C(=O)N[C@@H](C)C(=O)NCC(=O)NCC(=O)N1CCC[C@H]1C(=O)N[C@@H](CO)C(=O)N[C@@H](CO)C(=O)NCC(=O)N[C@@H](C)C(=O)N1CCC[C@H]1C(=O)N1CCC[C@H]1C(=O)N1CCC[C@H]1C(=O)N[C@@H](CO)C(N)=O)[C@@H](C)CC) [SEQ ID NO: 10] |  |  | 12.4 pM | 193000 pM | 1.4 pM |  | 
